Experiment [1] deals with T1, human PCSK9 (proprotein convertase subtilisin kexin type 9) (human, UniProt Q8NBP7 31-692). The experiment in a line: cell-based or functional assay.
Experiment [2] has as its target T2, human PCSK9 (proprotein convertase subtilisin kexin type 9) (human, UniProt Q8NBP7 31-692).
T2 construct: Directly immobilized (SPR ProteOn), biotinylated (BLI), or in solution, depending on the assay; also called hPCSK9
The experiment is described as follows: BLI, biotinylated hPCSK9 on sensor tips. The procedure:
Tips were then immersed into a buffer-only well for observation of Adnectin dissociation. Experiments were performed in a temperature controlled environment at either 25 or 37° C., and the oscillation speed was set at 1500 rpm.
Binding interaction analysis was performed using proprietary software from Fortebio (Fortebio Data Analysis Software version 6.3.0.36). Global fits were performed for all samples, using a 1:1 binding model. The nature of these global fits constrained all values of concentration to a single pair of association and dissociation rates that were themselves constrained to each other. Affinities (KD), association and dissociation rates were averaged over the various loading levels used in the analysis.
For orientation: BLI is a label-free optical method that tracks binding on a fibre tip over time.

Experiment [3] deals with T1, human PCSK9 (proprotein convertase …). The experiment is described as follows: PCSK9:EGFA FRET, competitor EGFA peptide.

B1: 1923B02(N82I) (designed binder)
chain: MGVSDVPRDLEVVAATPTSLLISWTPPPKGYGYYRITYGETGGNSPVQEFTVPVGEGTATISGLKPGVDYTITVYAVEYTYIGAGYYHRPISINYRTGSGSHHHHHH
For the molecule B1, the “LDLR Depletion EC50” value in experiment [1] turned out to be 14 nM.

B2: 1922G04(R25S) (designed binder)
chain: MGVSDVPRDLEVVAATPTSLLISWSPPSHAYGYYRITYGETGGNSPVQEFTVPIGKGTATISGLKPGVDYTITVYAVEYPWKGSGYYHRPISINYRTGSGSHHHHHH
As to B2, the “LDLR Depletion EC50” value in experiment [1] worked out at 21 nM.

B3: 1923B02(T80A) (designed binder)
chain: MGVSDVPRDLEVVAATPTSLLISWTPPPKGYGYYRITYGETGGNSPVQEFTVPVGEGTATISGLKPGVDYTITVYAVEYAYNGAGYYHRPISINYRTGSGSHHHHHH
As for B3, the “LDLR Depletion EC50” value in experiment [1] stood at 42 nM.

B4: 1923B02(N82E) (designed binder)
chain: MGVSDVPRDLEVVAATPTSLLISWTPPPKGYGYYRITYGETGGNSPVQEFTVPVGEGTATISGLKPGVDYTITVYAVEYTYEGAGYYHRPISINYRTGSGSHHHHHH
Consider B4, for which the “LDLR Depletion EC50” value in experiment [1] came to 28 nM.

B5: ATI001119 (designed binder)
chain: MGVSDVPRDLEVVAATPTSLLISWRPPSNGHGYYRITYGETGGNSPVQEFTVPVNEGTATISGLKPGVDYTITVYAVEFPFKWSGYYHRPISINYRTGSGCHHHHHH
modifications: PEGylated on the cysteine of the C-terminal tail (marked by asterisk in Table 5 as having been pegylated; PEG not specified)
notes: Anti-PCSK9 Adnectin, cysteine mutant of 2012A04, His6-tagged; also called 2012A04 Cys mut
In general, Kd refers to the equilibrium constant for the complex coming apart. Read a high Kd as lower affinity. The term koff denotes a measure of how fast the partners let go of each other. Low values mean slow dissociation, high ones fast dissociation. By kon is commonly meant the second-order rate constant of association. In experiment [2], B5 registered a Kd of 5.3 nM, a koff of 0.000445 s⁻¹ and a kon of 81900 M⁻¹ s⁻¹.

B6: 2451B06 (designed binder)
chain: MGVSDVPRDLEVVAATPTSLLISWDAPADGGYGYYRITYGETGGNSPVQEFTVPVSKGTATISGLKPGVDYTITVYAVEFDFPGAGYYHRPISINYRTEIDKPSQHHHHHH
A word on the EC50: it is the concentration that produces a half-maximal response. The low end stands for higher potency in that assay, the high end for lower potency in that assay. On to B6, for which the EC50 in experiment [3] was determined as 4.5 nM.

B7: 2382D08 (designed binder)
chain: MGVSDVPRDLEVVAATPTSLLISWDAPADGYGYYRITYGETGGNSPVQEFTVPVSKGTATISGLKPGVDYTITVYAVEFPFPGSGYYHRPISINYRTEIDKPSQHHHHHH
B7: the “LDLR Depletion (% inhibition at 75 nM)” value in experiment [1] was 107%. In experiment [3], this molecule gave an EC50 of 3.1 nM.

B8: ATI001175 (designed binder)
chain: MGVSDVPRDLEVVAATPTSLLISWDPPSHAYGYYRITYGETGGNSPVQEFTVPIGKGTATISGLKPGVDYTITVYAVEYPWKGSGYYHRPISINYRTEIDKPSQHHHHHH
In experiment [2], B8 returned a Kd of 0.543 nM, a koff of 0.000352 s⁻¹ and a kon of 656000 M⁻¹ s⁻¹.

B9: ATI001168 (designed binder)
chain: MGVSDVPRDLEVVAATPTSLLISWEPPSHAYGYYRITYGETGGNSPVQEFTVPIGKGTATISGLKPGVDYTITVYAVEYPWKGSGYYHRPISINYRTEIDKPSQHHHHHH
In experiment [2], B9 had a Kd of 0.586 nM, a koff of 0.000333 s⁻¹ and a kon of 583000 M⁻¹ s⁻¹.

B10: 2971A03 (designed binder)
chain: MGVSDVPRDLEVVAATPTSLLISWDPPSDDYGYYRITYGETGGNSPVQEFTVPIGKGTATISGLKPGVDYTITVYAVEFPWPHAGYYHRPISINYRTEIDKPSQHHHHHH
notes: Anti-PCSK9 Adnectin, His6-tagged
In experiment [2], B10 came in with a dissociation constant Kd of 0.806 nM, a koff of 0.00042 s⁻¹ and a kon of 574000 M⁻¹ s⁻¹.

B11: 1784F03-m3 (designed binder)
chain: MGVSDVPRDLEVVAATPTSLLISWDAPAVTYGYYRITYGETGGNSPVQEFTVPGSKSTATISGLKPGVDYTITVYAVEYTFKHSGYYHRPISINYRTEIDKPSQHHHHHH
Regarding B11, the “LDLR Depletion EC50” value in experiment [1] is > 2000 nM.

B12: 1784F03-m1 (designed binder)
chain: MGVSDVPRDLEVVAATPTSLLISWDAPIHAYGYYRITYGETGGNSPVQEFTVPGSEGTATISGLKPGVDYTITVYAVEYTFKHSGYYHRPISINYRTEIDKPSQHHHHHH
Consider B12, for which the “LDLR Depletion EC50” value in experiment [1] was > 2000 nM.

B13: 1784F03-m2 (designed binder)
chain: MGVSDVPRDLEVVAATPTSLLISWDAPAHAYGYYRITYGETGGNSPVQEFTVPGSKGTATISGLKPGVDYTITVYAVEYTFKHSGYYHRPISINYRTEIDKPSQHHHHHH
Regarding B13, the “LDLR Depletion EC50” value in experiment [1] was > 2000 nM.

B14: 2011B11 (designed binder)
chain: MGVSDVPRDLEVVAATPTSLLISWAPPSDAYGYYRITYGETGGNSPVQEFTVPIGKGTATISGLKPGVDYTITVYAVEYPYSHAGYYHRPISINYRTEIDKPSQHHHHHH
With B14, in experiment [1], the “LDLR Depletion (% inhibition at 75 nM)” value was found to be 144%. This molecule also returned an EC50 in experiment [3] of 1.7 nM.

B15: 2382H11 (designed binder)
chain: MGVSDVPRDLEVVAATPTSLLISWDAPADGYGYYRITYGETGGNSPVQEFTVPVFKGTATISGLKPGVDYTITVYAVEFDYPGSGYYHRPISINYRTEIDKPSQHHHHHH
Turning to B15, the “LDLR Depletion (% inhibition at 75 nM)” value in experiment [1] stood at 117%. The molecule further yielded an EC50 in experiment [3] of 2.9 nM.

B16: 2382E09 (designed binder)
chain: MGVSDVPRDLEVVAATPTSLLISWDAPAEAYGYYRITYGETGGNSPVQEFTVPVSKGTATISGLKPGVDYTITVYAVEYDFPGSGYYHRPISINYRTEIDKPSQHHHHHH
Consider B16, for which, in experiment [1], the “LDLR Depletion (% inhibition at 75 nM)” value stood at 97.2%. The molecule also had an EC50 in experiment [3] of 6.2 nM.

B17: 2382F08 (designed binder)
chain: MGVSDVPRDLEVVAATPTSLLISWDAPAEAYGYYRITYGETGGNSPVQEFTVPVSKGTATISGLKPGVDYTITVYAVEFTYPGSGYYHRPISINYRTEIDKPSQHHHHHH
As to B17, in experiment [1], the “LDLR Depletion (% inhibition at 75 nM)” value was 105%. Moreover, the EC50 in experiment [3] is 2.5 nM.

B18: 2382B08 (designed binder)
chain: MGVSDVPRDLEVVAATPTSLLISWDAPADAYGYYRITYGETGGNSPVQEFTVPSSKGTATISGLKPGVDYTITVYAVEFAFPGAGYYHRPISINYRTEIDKPSQHHHHHH
In the case of B18, the “LDLR Depletion (% inhibition at 75 nM)” value in experiment [1] is 107%. Moreover, in experiment [3], the EC50 came to 2.9 nM.

B19: 2382H07 (designed binder)
chain: MGVSDVPRDLEVVAATPTSLLISWDAPADAYGYYRITYGETGGNSPVQEFTVPGSKGTATISGLKPGVDYTITVYAVEFDFPGSGYYHRPISINYRTEIDKPSQHHHHHH
For B19, in experiment [1], the “LDLR Depletion (% inhibition at 75 nM)” value amounted to 86.2%. The EC50 in experiment [3] is 2.7 nM.

B20: 2382F09 (designed binder)
chain: MGVSDVPRDLEVVAATPTSLLISWDAPAAAYGYYRITYGETGGNSPVQEFTVPVSKGTATISGLKPGVDYTITVYAVEYDFPGSGYYHRPISINYRTEIDKPSQHHHHHH
B20: in experiment [1], the “LDLR Depletion (% inhibition at 75 nM)” value came to 110%. In addition, the EC50 in experiment [3] turned out to be 3.1 nM.

B21: 2011H05(V23E) (designed binder)
chain: MGVSDVPRDLEVVAATPTSLLISWEPSSHAYGYYRITYGETGGNSPVQEFTVPVGVGTATISGLKPGVDYTITVYAVEYAFEGAGYYHRPISINYRTEIDKPSQHHHHHH
For the molecule B21, the “LDLR Depletion EC50” value in experiment [1] is 12 nM. In experiment [3], this molecule had an EC50 of 7.4 nM.

B22: 2971A09 (designed binder)
chain: MGVSDVPRDLEVVAATPTSLLISWDAPADDYGYYRITYGETGGNSPVQEFTVPIGKGTATISGLKPGVDYTITVYAVEFPWPHAGYYHRPISINYRTEIDKPSQHHHHHH
notes: as for B10
In experiment [2], B22 displayed a Kd of 2.79 nM, a koff of 0.00105 s⁻¹ and a kon of 399000 M⁻¹ s⁻¹.

B23: 2971E02 (designed binder)
chain: MGVSDVPRDLEVVAATPTSLLISWDAPSDDYGYYRITYGETGGNSPVQEFTVPIGKGTATISGLKPGVDYTITVYAVEFPWPHAGYYHRPISINYRTEIDKPSQHHHHHH
notes: as for B10
In experiment [2], B23 displayed a Kd of 1.78 nM, a koff of 0.000555 s⁻¹ and a kon of 355000 M⁻¹ s⁻¹.

B24: 2011H05(V23D) (designed binder)
chain: MGVSDVPRDLEVVAATPTSLLISWDPSSHAYGYYRITYGETGGNSPVQEFTVPVGVGTATISGLKPGVDYTITVYAVEYAFEGAGYYHRPISINYRTEIDKPSQHHHHHH
Turning to B24, the “LDLR Depletion EC50” value in experiment [1] was determined as 18 nM. Moreover, in experiment [3], the EC50 is 5.5 nM.

B25: 2382B11 (designed binder)
chain: MGVSDVPRDLEVVAATPTSLLISWDAPAAAYGYYRITYGETGGNSPVQEFTVPVSKGTATISGLKPGVDYTITVYAVEYDFAGSGYYHRPISINYRTEIDKPSQHHHHHH
Turning to B25, in experiment [1], the “LDLR Depletion (% inhibition at 75 nM)” value was determined as 88.8%. Also, in experiment [3], the EC50 stood at 2.9 nM.

B26: 2382C11 (designed binder)
chain: MGVSDVPRDLEVVAATPTSLLISWDAPAGGYGYYRITYGETGGNSPVQEFTVPVSKGTATISGLKPGVDYTITVYAVEYDFAGSGYYHRPISINYRTEIDKPSQHHHHHH
For the molecule B26, the “LDLR Depletion (% inhibition at 75 nM)” value in experiment [1] came to 82.9%. Moreover, in experiment [3], the EC50 turned out to be 3.7 nM.

B27: ATI001114 (designed binder)
chain: MGVSDVPRDLEVVAATPTSLLISWVPPSDDYGYYRITYGETGGNSPVQEFTVPIGKGTATISGLKPGVDYTITVYAVEFPWPHAGYYHRPISINYRTGSGCHHHHHH
modifications: PEGylated on the cysteine of the C-terminal GSGC tail (two-branched 40 kDa PEG)
notes: PEGylated version of the 2013E01 Adnectin, His6-tagged; also called ATI1114
For B27, in experiment [2], the Kd was determined as 4.88 nM, the koff turned out to be 0.000395 s⁻¹ and the kon turned out to be 80700 M⁻¹ s⁻¹.

B28: ATI001117 (designed binder)
chain: MGVSDVPRDLEVVAATPTSLLISWVPSSHAYGYYRITYGETGGNSPVQEFTVPVGVGTATISGLKPGVDYTITVYAVEYAFEGAGYYHRPISINYRTGSGCHHHHHH
modifications: PEGylated on the cysteine of the C-terminal tail (marked by asterisk in Table 5 as having been pegylated; PEG not specified)
notes: Anti-PCSK9 Adnectin, cysteine mutant of 2011H05, His6-tagged; also called 2011H05 Cys mut
In experiment [2], B28 registered a Kd of 0.554 nM, a koff of 5.07e-05 s⁻¹ and a kon of 145000 M⁻¹ s⁻¹.

The values above are taken from patent US20120094909A1 (Bristol-Myers Squibb, published 2012).
